Results: patent US20140287419A1, “Compositions Having Dicamba Decarboxylase Activity and Methods of Use” (priority 2013, published 2014)

Assay: 14C assay with IPTG-induced recombinant E. coli cells (14CO2 capture from [14C]-carboxyl-labeled dicamba)
Settings: for Dicamba Decarboxylase Activity: IPTG-induced recombinant E. coli cells, [14C]-carboxyl-labeled dicamba, 14CO2 capture; for Enzymatic Detection level: dicamba decarboxylation activity of the protein of the given SEQ ID NO

| Molecule | Dicamba Decarboxylase Activity | Enzymatic Detection level |
| --- | --- | --- |
| 18 (protein, listed as Legionella pneumophila) MAIVDFETHFITEACIDYLTQRQEVPKLVPELNGAYTMCFTPDVSLFHTSALMEELLSLNEQRLAIMDQAGVTIQVLSLTTINGIDSCPGDENKSTALAREVNDQLYSAIQKHPERFKGFASISPYDVKEGVKELERAISQLGFVGWLTHSNFGQDNYLDDKIYWPLLEAAESLNIPIYLHPNVPIMREFGKYGFALGGSALGFEFDTALCLMRMILGGVFDAFPKLKIMLGHLGETMPFLMERLDHLYRIPDLKPYRPSIQRIPSEVLRQNVYITTSGRFFVPALRYVLEVMGEDRVLFASDYPMESLLDATRFIQDSDLSNQTKQKIFSINAKNLNLI | Low | Low |
| 20 (protein, listed as Legionella pneumophila) MAIVDFETHFITEACIDYLTQRQEVPKLVPDLNGAYTMCFTPDVSLFHTSALMEELLSLNEQRLAIMDQAGVTIQVLSLTTINGIDSCPGDENKSTALAREVNDQLYSAIQRHPERFKGFASISPYDVKEGVKELERAISQLGFVGWLTHSNFGQDNYLDDKTYWPLLEAAEGLNIPIYLHPNVPIMREFGKYGFALGGSALGFEFDTALCLMRMILGGVFDAFPKLKIMLGHLGETMPFLMERLDHLYRIPDLKAYRPSIQRIPSEVLRQNVYITTSGRFFVPALRYVLEVMGEDRVLFASDYPMESLLDATRFIQDSDLSNQTKQKIFSINAKNLNLI | Low | Low |
| 17 (protein, Aspergillus niger) MARGKIALEEAFEVKGMDEEIDAQAALYIAPKDVERYKRQIVSITDERLQLSDQNGIGYSILSLTVPGIQGITDKDKAEKRARDVNNYIHDQIKDHRDRLGAFAALSMHDPRQAGHELRRCVKELGFHGALLNDVQHTGEGDDDQPLFYDQPDYDEFWRVAVELDVPVYLHPAAPLRDTLIYKQSYEDRKYLVGPPQSYCNGVALHLMGIIVNGVFDRFPNLKVIVGHMGERIPFDFWRMDHWVKGVTRPLAEKNGDTVCQKEPLYYFKRNIYITTSGHFSTQNLRYLYEWLGDERMMFSVDFPYERMEHGCQWYDDDAEKIKEALGGRDGYLRVGRDNARRLFKLTKFKDCDAV | Low | Low |
| 21 (protein, listed as Agrobacterium tumefaciens) MAQGKVALEEHFAIPETLQDSAGFVPGDYWKELQHRLLDIQDTRLKLMDAHGIETMILSLNAPAVQAIPDRKKAIEIARRANDVLAEECARRPDRFLAFAALPLQDPDAATQELQRCVNDLGFVGALVNGFSQEGDGQTPLYYDLPQYRPFWGEVEKLDVPFYLHPRNPLPQDSRIYDGHPWLLGPTWAFAQETAVHALRLMASGLFDAHPRLNIILGHMGEGLPYMMWRIDHRNAWVKLPPRYPAKRRFVDYFNENFHITTSGNFRTQTLIDAILEIGADRILFSTDWPFENIDHASDWFNATTIAEADRVKIGRTNARRLFKLDGR | High | High |
| 22 (protein, listed as Staphylococcus epidermidis) MAKSINFEEHYVVDDIQKETMKYMSSDPNGVPMQTMLKGLEQKSGFTNADDITKHDERIKFMDEHDVEMQVLSYGNGAPSNLEGERAIELCQQANDTLAKYVNEHPDRFVGFATLPINEPQAAVEEFKRCIKELGFKGALIMGHPKNGFLDQDQYDDLFATAEALNVPIYLHPSPVQSDVYQAYYKGNYSDVTAATFACFGYGWHVDVGIHAIHLVLSGVFDRHPNLNMIIGHWGEFVPFFLERMDDILFADHLEHPISYYFKNNFYITPSGMLTKPQFDLVKAEVGVDRILYSADYPYVEPDKLGTFLDELDLTEEEKEKISYKNGAKLLGLEK | High | High |
| 24 (protein, Aspergillus niger) MALGKVVLEEAYERPNMKEKSNHEAGLYIAPNDRPRYMRQINDINQERLKLADAHGVGYTIISLTVPGIQGIFDKTEAERVATETNNWAAEQIKNHRDRLGAFACLSMHDPAQAANELRRCVQELGFHGALLCSFQHAGPDGETYLFYDQPKYDVFWKALTELDVPLYIHPAAPTGSILERLYAQRPALIGPPLSFANDVSLHTLGIISNGVFDRFPNLKIIIGHLGEHIPFDFWRIDHWFRDVKKPIADEEGRVMAQKSLYHYFKHNIWLTTSGHFSTPTLKYVVNEIGVDRVLFSVDYPYETTESGCNWWDHDKDAIVEAVGGVDNYYAIGRENAKKLLRLDKFHDSDAR | Low | Low |
| 26 (protein, listed as Variovorax paradoxus) MATHMAPMKNKIALEEHFAIDLTIADSQVYARPEVWQGLKSNLLDFEQQRLEKMDEWGTEFSILSLNSPAVQGIPDAKRAIEVAQRANDVLAEQVKRHPTRFGGFAALPMQDPEASARELERCVNQLGFHGFLVNGFSQVGDENIVVYYDDARFNDFWTAAAALKKPFYMHPRDPLLAREPIYDGAHWLTGPTWAFAMETAIHALRLMSSGMFDRHPALQMILGHFGEGIPFNIWRVDHILRKGRRGMPCDKEIGEYLRSNVHITTSGNFRTPTLLSTMLEVGSDRIMYSVDYPFEKHEDAARWFDTCEISENDRQKIGRDNARKLFGLK | High | High |
| 19 (protein, listed as Talaromyces marneffei) MATPIITLEEHYISSAIRDASETDHYAVFPSQIISKLNTLSTERLQDLDNGHVSLQVISHGPGAQPPYLCQAANDELASAISANPTRFAGFALLPIAEPQLAVQELERCITQHKFVGALIDNHTNGQFYDDQKFWPVFEKAQELDAPIYVHPSYPDEESGVAAHYRGNYDDRIAAALGAYGWGWHSDTALSILRLFAAGLFDTYPNIKIIIGHMGEMLPFQLERVIGIASRFGRSRGLREVWTQNIWVTTSGMFALAPLACLLQTMPIERVLYSVDYPFSANEKGFAFLEEIKKSGLIKEGEDWERFLYKNAQELLKVNV | High | High |
| 25 (protein, listed as Acidovorax avenae) MAQGKIGLEEHFAIPETLQDSAGFVPGDYWKELSLRLLDIHERRLREMDENGMEMMILSLNAPAVQAIPDTKKAVEIAVRANDFLAEQVARRPDRFQAFAALPMQDPDLATRELERCMQDLGFRGALVNGFSQVGTPENVVYYDAPQYGDFWAAVERLDAPFYLHPRNPIASWAQIYQGHPWLMGPTWAFAQETAVHALRLMASGLFDRHPGLRIILGHLGEGLPYNMWRVDHRNAWVDMPKGYPAKRKLCDYFHENFYLTTSGNFRTQTLIDALLEVGADRILFSTDWPFENVDHAAHWFDDAAISEADRLKIGRTNALSLFKLPQG | Low | Low |
| 23 (protein, listed as Aplysina aerophoba) MAIDIDARSQPGLETARRAMSRRDFLGGAAAFGITAAATTALPASTAAGEEEDLFLLGLEEHFATAELRRLNGIQFPQGTPRFDINDVGAGRIADMDAAGIDIQVLSALTPGAQNLPGAEGVAYARRLNSWVAHEVIPAYPGRFRAFATLPLSEPQAAADELEYAVRELGFLGCMTYGAVDGKFLDHADFVPVLARAETLDVPIYIHPNWASPQVMDTYYNGLGNEWVSRVLSGAGYGWHQEVALQCLRMIASGVFDRFPRLQIIVGHMGEGLPFFYWRFGDDLARITADTLEKPVQQYFHDNFWITTSAFFRDELLRLVLSVMGEDRVMFAVDYPFVSNKVGADWFRAVDLPRNVKEKIAHKNAERLLKIGPF | Low | Low |
